Test results reported in article PMC5458116.

System: MBP-ZnF4 (ZnF_1012 fused to GCN4-p-LI coiled coil) (synthetic construct)
Assay: EMSA
Settings: 5 nM DNA, 5 nM protein, 5 mM Tris-HCl pH 8.5, 210 mM NaCl, 4.8% glycerol, 0.05% Tween 20, 8 mg/l BSA, 30 min, room temperature, 5% native PAGE in 0.5x Tris-borate

Substance | binding signal (fold weaker than unmethylated DNA (N1)) (adenine-N6 methylated, N6-methyladenine at GANTC sites (CcrM in vitro, both strands)) | binding signal (fold preference over methylated DNA (N2)) (unlabelled competitors added)
CcrM-methylated 152 bp PCR fragment with 2 ZnF binding sites | 70 | –
unmethylated 152 bp PCR fragment with 2 ZnF binding sites | – | 70
